For experiment [1], the target named is DcuR (UniProt P0AD01). The experiment is described as follows: size exclusion chromatography with SDS-PAGE of fractions. The settings on record: reference: PASC-Kin without ATP, mixed with DcuR; sites H349.
The target of experiment [2] is OmpR (Escherichia coli) (UniProt P0AA16). The settings on record: cited from earlier work.
In experiment [3] the target is FixJ (Rhizobium meliloti) (UniProt P10958). The settings on record: cited from earlier work.

pKd: −log10 of the molar value.

Sequence of FixL heme-binding and kinase domains (P10955 127-505): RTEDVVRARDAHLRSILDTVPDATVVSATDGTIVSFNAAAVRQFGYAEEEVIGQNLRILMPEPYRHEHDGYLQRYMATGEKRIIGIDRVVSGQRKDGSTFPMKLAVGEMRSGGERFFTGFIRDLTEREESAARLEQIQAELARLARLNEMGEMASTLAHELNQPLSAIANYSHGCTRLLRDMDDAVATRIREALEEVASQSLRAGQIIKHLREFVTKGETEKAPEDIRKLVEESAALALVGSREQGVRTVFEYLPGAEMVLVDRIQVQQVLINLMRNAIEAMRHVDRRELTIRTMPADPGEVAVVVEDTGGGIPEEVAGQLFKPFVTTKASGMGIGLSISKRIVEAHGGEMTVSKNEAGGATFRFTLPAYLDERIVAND
Sequence of OmpR (Escherichia coli) (P0AA16 whole entry): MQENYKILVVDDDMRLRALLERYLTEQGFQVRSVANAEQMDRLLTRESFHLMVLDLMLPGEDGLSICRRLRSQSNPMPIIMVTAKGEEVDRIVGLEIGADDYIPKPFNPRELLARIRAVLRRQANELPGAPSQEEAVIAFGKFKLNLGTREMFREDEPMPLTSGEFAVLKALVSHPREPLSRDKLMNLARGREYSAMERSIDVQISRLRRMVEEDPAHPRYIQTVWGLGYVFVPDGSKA
Sequence of EnvZ cytoplasmic portion (P0AEJ4 180-450): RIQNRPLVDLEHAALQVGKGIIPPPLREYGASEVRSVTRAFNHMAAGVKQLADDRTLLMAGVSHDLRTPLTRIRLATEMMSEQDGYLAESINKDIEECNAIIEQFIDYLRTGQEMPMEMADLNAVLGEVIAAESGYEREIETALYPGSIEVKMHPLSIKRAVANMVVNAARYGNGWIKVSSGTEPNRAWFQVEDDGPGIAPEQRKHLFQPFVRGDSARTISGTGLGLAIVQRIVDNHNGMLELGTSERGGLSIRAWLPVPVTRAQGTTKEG
Sequence of FixJ (Rhizobium meliloti) (P10958 whole entry): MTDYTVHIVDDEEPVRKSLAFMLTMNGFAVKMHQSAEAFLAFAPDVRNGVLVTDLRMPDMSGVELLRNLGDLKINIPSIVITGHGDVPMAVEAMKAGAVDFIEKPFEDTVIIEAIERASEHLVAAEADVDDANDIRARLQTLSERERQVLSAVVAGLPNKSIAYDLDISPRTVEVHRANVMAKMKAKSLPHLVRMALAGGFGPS

As to “DcuS (cytoplasmic part: PASC-Kin) PASC-Kin, 212-539 (from UniProt P0AEC8) PASC-Kin pre-incubated with ATP, mixed with DcuR”, the “other: mol DcuR per mol PASC-Kin in complex peak” value in experiment [1] is given as “stronger; reference approximately 0.11”.

Take “EnvZ cytoplasmic portion (from UniProt P0AEJ4)”: the pKd (commonly the negative decadic logarithm of the Kd, by convention in mol/L) in experiment [2] was 6.37.

Regarding “FixL heme-binding and kinase domains (from UniProt P10955)”, the pKd in experiment [3] was 5.40.

The record behind these values is paper PMC9429925.
